According to paper PMC8852740, “Neutralization of Typhoid Toxin by Alpaca-Derived, Single-Domain Antibodies Targeting the PltB and CdtB Subunits” (Infection and Immunity, 2021):
Changes are numbered by the printed parent chain.

B1: T2A1 (VHH)
VHH: QVQLVESGGGLVQAGGSLRLTCAGSGRTFSGDVMGWFRQAPGKEREFVAAISYNGGSTYYADSVKGRFTISRDNAKNTVYLQMDGLKPGDTAVYYCASSREDYGSSLAKGSYDYWGQGTQVTVSS
B2: T2B4 (VHH)
VHH: QVQLVETGGALVQTGGSLRLSCAVSGRSSSTQGLGWYRQAPGKEREFVATINWISGATYYSDSVKGRFSISRDNAENTVSLQMHDLKPDDTAVYYCGAGLSPIARMDYWGQGTQVTVSS
B3: T2D2 (VHH)
VHH: QVQLAETGGGLVQPGGSLRLSCAASGFDFSRSTMSWVRQAPGKNIEWVSDINSGGGLTNYGDTVKDRFTISRDNAKNTLYLQMNSLDVEDTAVYYCVKGMWITSDQPRGQGTQVTVSS
B4: T2A7 (VHH)
VHH: QVQLVETGGGLVQTGGSLRLSCAASGFTFDDFAIGWFRQAPGKEREWVSCISSRNGSPYYADSVKGRFTISSDNAKNTVYLQMNSLKPEDTAVYYCKADTDSIVPSCNALDTWGQGTLVTVSS
B5: T2A2 (VHH)
VHH: QVQLAETGGGLVQPGGSLRLSCAVSGFMVNSYDIGWFRQAPGKEREGVSCISSSGGATHYVDSVKGRFTISRDNAKNMVYLQMNSLKPEDTATYYCAANRMTRCSDYHGYPFWGQGTQVTVSS
B6: T2B2 (VHH)
VHH: QLQLAESGGGLVQAGGSLRLSCAASGRTFNTLHLAWFRQAPGNERDFVASISGSLGSLHYADSVKGRFTISRDNANNTVYLQMNSLKLEDTAVYYCAGAPIYDRFSSSSSSYDYWGQGTQVTVSS
B7: T2D9 (VHH)
VHH: QLQLVESGGGLVQPGGSLRLSCVLSGSDLAYYNVGWFRQAPGKEREGVACTSRVSDTKYYADSVKARFTVARDNAKNTVNLQMSSLRPEDTAVYSCALLRWCTTEDSDSEGMGHWGKGTLVTVSS
B8: T2C1 (VHH)
VHH: QVQLVETGGGLVQAGGSLRLSCAASGRTFSGDAMGWFRQAPGKEREFVAAISWNGGSTDYADSVKGRFTISRDAKNTVYLQMNSLKPEDTAVYYCASSREDYGSSFLRGSYDYLGQGTQVTVSS
B9: T2G6 (VHH)
VHH: QVQLVESGGGLVQAGGSLRLSCAASGFTFDDYAIGWFRQAPGKEREMILCINSRSGSTSYYADSVKGRFTVSVNSAKNTAYLQMNSLKPEDTAVYYCAADVTHPHSCNALDAWGQGTLVTVSS
B10: T2H1 (VHH)
VHH: B9 VHH with M47Q, R54N, S55R, G56A, S57R, D63E, V65I, A80V
B11: T2D10 (VHH)
VHH: QVQLAETGGGLVQAGGSLRLSCAASGLTSSRYAMAWFRQVPGLEREFVASMTGSGGRTFYADSVKGRFTISRDNAKNTVYLQMNNLNPEDTAVYYCAVEYRDSGTRWSNEYDYWGQGTQVTVSS
B12: T2B6 (VHH)
VHH: QLQLAESGGGLVQAGDSLRLSCADSGRTFSDYAMGWFRQAPGKEREFVAAISWNGRSTYYIEAVKDRFTISRDNAKKTLYLQMNSLKPEDTAVYYCAAAREDYGSSLVKGSADYWGQGTQVTVSS
B13: T2E8 (VHH)
VHH: QVQLAESGGGSVQAGGSLRLSCAASGLTFDKYAIGWFRQAPGKGREMVSCINTNYGSTYYADSVKGRFTISSDTAKNTVYLQMNSLSPEDTAVYYCAADTRSSWPSCNALDTWGQGTLVTVSS
B14: T2A3 (VHH)
VHH: B13 VHH with S11L, G44E, M47L, N52S, T58P, T74N, S87K, T112A, W113R

The binders below were run against PltB homopentamer, biotinylated (Salmonella enterica serovar Typhi; …, UniProt Q8Z6A3, biotinylated with EZ-link NHS-Biotin (sites not given)).

Binder	binding result
B1	binds
B2	binds
B3	binds
B4	binds
B5	binds
B6	binds
B7	binds
B8	binds
B9	binds
B10	binds
B11	binds
B12	binds
B13	binds
B14	binds
